{"source": "patent US20030211540", "system": "T1, PKC inhibitor peptide 19-31 (Arg-Phe-Ala-Arg-Lys-Gly-Ala-Leu-Arg-Gin-Lys-Asn-Val)", "T1 sequence": "RFARKGALRQKNV", "data": [{"substance": "Protein kinase C", "values": [{"measurement": "insulin-stimulated DNA synthesis (BrDU incorporation) under high glucose after microinjection of the peptide", "result": "partially reversed inhibition of DNA synthesis"}]}]}
